The values that follow come from the supplement of paper PMC10567573.

This data set is described as follows: protein stability index of a GFP-peptide fusion (GPS, HEK-293T) (PSI 1-6); higher = more stable.
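Also: lentivirally expressed fusions sorted by FACS into six bins by GFP to DsRed ratio, PSI derived from sequencing read proportions per bin multiplied by bin number.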

For the protein KKFRTKSRTWAGEKSKREMYSRLK, the protein stability index (parent: IOH5852_84, c terminus: a fixed tail appended) was 2.82.
Consider FCYCAGSHKRKRSSGSFCYCHPDS, for which the protein stability index (parent: IOH5876_8, c terminus: a fixed tail appended) amounted to 1.91.
In the case of KPIVPTDGKRVIVVFHCEFSSERG, where the note is “parent: IOH5852_70, c terminus: a fixed tail appended”, the protein stability index stood at 2.59.
TVAGKHQDLKYISPEIMASVLNGK: the protein stability index (parent: IOH5852_59, c terminus: a fixed tail appended) turned out to be 3.04.
Turning to APWNYHYHCPGSPDHQVPYGHDYP, for the setting “parent: IOH5394_44, c terminus: a fixed tail appended”, the protein stability index came to 1.94.
Take FGGNPRFLSLHRAHLGEEAHKCLE: the protein stability index (parent: IOH6312_70, c terminus: a fixed tail appended) stood at 1.85.
Turning to FQRRNMIEPRERAKFKRKYKVKLV, the protein stability index (parent: IOH6410_75, c terminus: a fixed tail appended) is 2.25.
For QSLDQEILLKVKTEIEEELKSLDK, the protein stability index (parent: IOH5956_9, c terminus: a fixed tail appended) came out at 4.89.
For the protein CKACITRWWEDLERDFPCPVCRKT, under “parent: IOH5913_9, c terminus: a fixed tail appended”, the protein stability index was found to be 3.85.
On to QTSAFARQPRDELERVRVSCTIIF, for which the protein stability index (parent: IOH5167_61, c terminus: a fixed tail appended) is 2.28.
Regarding QLIDPDENKENEAFEFKKPVRPVS, the protein stability index (parent: IOH5852_23, c terminus: a fixed tail appended) amounted to 3.49.
In the case of REESLPNLLQYVRMPLLTPRYITD, the protein stability index (parent: IOH6063_36, c terminus: a fixed tail appended) turned out to be 2.48.
As for LARRRRRRQARREAEADKPRRLGR, the protein stability index (parent: IOH6410_65, c terminus: a fixed tail appended) turned out to be 4.75.
As to VPGTQVGQGGKLWDPSVQSCKEGL, the protein stability index (parent: IOH6312_45, c terminus: a fixed tail appended) is 4.2.
As for YPCVLATEGFTSGRHYWEVEVGDK, for the setting “parent: IOH5913_59, c terminus: a fixed tail appended”, the protein stability index came to 1.8.
In the case of KEHVPTWLQNTHVYSWPKNKKNIL, the protein stability index (parent: IOH5394_87, c terminus: a fixed tail appended) is 2.59.
As for RTHTGEKPYKCTLCGENFSHRSNL, the protein stability index (parent: IOH6312_100, c terminus: a fixed tail appended) was 2.17.
With QRTHTGEKPYKCPECGEIFAHSSN, the protein stability index (parent: IOH6312_81, c terminus: a fixed tail appended) was determined as 3.1.
For YPHCTGISQQDPESDSQGQGNGLF [FAM164C WT], the protein stability index (parent: IOH5453_15, c terminus: a fixed tail appended) was 3.84.
Regarding YIIQQGGWGTVFSLESEEEEYPGI, the protein stability index (parent: IOH5956_33, c terminus: a fixed tail appended) came to 1.93.
For the protein KPYKCTLCGENFSHRSNLIRHQRI, the protein stability index (parent: IOH6312_101, c terminus: a fixed tail appended) amounted to 2.32.
SMTTPRCYVGATVLRGRLYAIAGY: where the note is “parent: IOH6063_85, c terminus: a fixed tail appended”, the protein stability index was 2.41.
Consider MASSSTVPLGFHYETKYVVLSYLG, for which the protein stability index (parent: IOH5956_1, c terminus: a fixed tail appended) came out at 2.43.
Take ALLHQAETLQPSVWFGGREHVLMF: the protein stability index (parent: IOH5167_67, c terminus: a fixed tail appended) turned out to be 2.09.
Consider LGCYAVYSLLYLEHKGWYSWVLSM, for which the protein stability index (parent: IOH5653_82, c terminus: a fixed tail appended) worked out at 2.95.
Take SVICRSLPEGMGPGESGQPPPAC [ALKBH7 WT]: the protein stability index (parent: IOH5568_34, c terminus: native) stood at 1.99.
Consider PEASHLRFRRFRFQEAAGPREALS, for which the protein stability index (parent: IOH6312_7, c terminus: a fixed tail appended) was determined as 2.65.
Consider YGHDYPRAAYQQVIQPALPGQPLP, for which the protein stability index (parent: IOH5394_47, c terminus: a fixed tail appended) is 1.96.
With RPDTGDDAAGHGFCYCAGSHKRKR, the protein stability index (parent: IOH5876_6, c terminus: a fixed tail appended) turned out to be 2.92.
Regarding KQGSMNFRFIPVLFPNAKKEHVPT, for the setting “parent: IOH5394_84, c terminus: a fixed tail appended”, the protein stability index was found to be 1.99.
With CSECGESFSRSSRLMSHQRTHTG, the protein stability index (parent: IOH6312_114, c terminus: native) was 2.98.
Turning to DPQSGELPSERWNPTQNVRTILLS [UBE2R2 WT], the protein stability index (parent: IOH5652_18, c terminus: a fixed tail appended) stood at 3.45.
Regarding ERDFPCPVCRKTSRYRSLRPNRQL, the protein stability index (parent: IOH5913_11, c terminus: a fixed tail appended) is 2.25.
On to FGGGSTRGGSLLAGGGGFGGGSLS, for which the protein stability index (parent: IOH5303_3, c terminus: a fixed tail appended) is 1.81.
Regarding PGQPLPGASVRGLHPVQKVILNYP, the protein stability index (parent: IOH5394_50, c terminus: a fixed tail appended) came to 3.05.
Consider SNFHINVEESVDGQVVSSHKREI, for which the protein stability index (parent: IOH5303_75, c terminus: native) turned out to be 2.11.
As to FMEKRNQWLVSQLSAASPDTGHDS, the protein stability index (parent: IOH5394_23, c terminus: a fixed tail appended) worked out at 2.4.
As to SCTIIFLASIFQLAMWTTALLHQA, the protein stability index (parent: IOH5167_64, c terminus: a fixed tail appended) came to 2.71.
For VVTSAREHIYDLRSLENYHFVDEH [CLINT1 WT], the protein stability index (parent: IOH5634_17, c terminus: a fixed tail appended) was 2.76.
With LDYTADEDGVWYSVAPMNVRRGLA, where the note is “parent: IOH6063_59, c terminus: a fixed tail appended”, the protein stability index came to 1.98.
In the case of PRPPSNPPARGTLKTSNLPEELRK, the protein stability index (parent: IOH5394_64, c terminus: a fixed tail appended) is 4.55.
With FGPDSKSSALACTLPTLPAKVYVG, where the note is “parent: IOH5398_13, c terminus: a fixed tail appended”, the protein stability index turned out to be 2.21.
With MNLHVYISEHEHFTDFNATSALFW, the protein stability index (parent: IOH5653_18, c terminus: a fixed tail appended) was determined as 2.74.
As to HLTRHQRTHTGEKPYKCTLCGENF, where the note is “parent: IOH6312_99, c terminus: a fixed tail appended”, the protein stability index was determined as 2.9.
QPKKLHLCPLCGKNFSNNSNLIRH: the protein stability index (parent: IOH6312_63, c terminus: a fixed tail appended) was found to be 2.55.
Take KIANLGSCNDSKLEFRSFWELIGE [S100A14 WT]: the protein stability index (parent: IOH5597_12, c terminus: a fixed tail appended) is 2.01.
For EKPYKCPECGEIFAHSSNLLRHQR, for the setting “parent: IOH6312_82, c terminus: a fixed tail appended”, the protein stability index was 2.43.
For YNPSFEDHQTLLSAAHEVELQRQK, the protein stability index (parent: IOH6410_42, c terminus: a fixed tail appended) came out at 3.61.
As for FAHSSNLLRHQRIHTGERPYKCPE, the protein stability index (parent: IOH6312_84, c terminus: a fixed tail appended) came out at 2.34.
As for FQAKKIPIVSSLADPLDTPPDSKE, the protein stability index (parent: IOH5807_78, c terminus: a fixed tail appended) came to 3.78.
FVKILKDFPEEDDPTNWLRCYYYE: the protein stability index (parent: IOH5398_38, c terminus: a fixed tail appended) came out at 2.09.
For the protein RETASLKLLPHQPRIVEMKKGSNG, under “parent: IOH5807_39, c terminus: a fixed tail appended”, the protein stability index worked out at 3.37.
With LLRHQRIHTGERPYKCPECGKSFS, for the setting “parent: IOH6312_85, c terminus: a fixed tail appended”, the protein stability index worked out at 2.03.
